According to PMC8412337, “Alpha-single chains of collagen type VI inhibit the fibrogenic effects of triple helical collagen VI in hepatic stellate cells” (PLoS ONE, 2021):

B1: α2(VI): monomeric alpha 2 single chain of collagen VI isolated from human placentas (protein, UniProt P12110 21-1019, looked up)
Collagen alpha-2(VI) chain: QQQEVISPDTTERNNNCPEKTDCPIHVYFVLDTSESVTMQSPTDILLFHMKQFVPQFISQLQNEFYLDQVALSWRYGGLHFSDQVEVFSPPGSDRASFIKNLQGISSFRRGTFTDCALANMTEQIRQDRSKGTVHFAVVITDGHVTGSPCGGIKLQAERAREEGIRLFAVAPNQNLKEQGLRDIASTPHELYRNDYATMLPDSTEIDQDTINRIIKVMKHEAYGECYKVSCLEIPGPSGPKGYRGQKGAKGNMGEPGEPGQKGRQGDPGIEGPIGFPGPKGVPGFKGEKGEFGADGRKGAPGLAGKNGTDGQKGKLGRIGPPGCKGDPGNRGPDGYPGEAGSPGERGDQGGKGDPGRPGRRGPPGEIGAKGSKGYQGNSGAPGSPGVKGAKGGPGPRGPKGEPGRRGDPGTKGSPGSDGPKGEKGDPGPEGPRGLAGEVGNKGAKGDRGLPGPRGPQGALGEPGKQGSRGDPGDAGPRGDSGQPGPKGDPGRPGFSYPGPRGAPGEKGEPGPRGPEGGRGDFGLKGEPGRKGEKGEPADPGPPGEPGPRGPRGVPGPEGEPGPPGDPGLTECDVMTYVRETCGCCDCEKRCGALDVVFVIDSSESIGYTNFTLEKNFVINVVNRLGAIAKDPKSETGTRVGVVQYSHEGTFEAIQLDDERIDSLSSFKEAVKNLEWIAGGTWTPSALKFAYDRLIKESRRQKTRVFAVVITDGRHDPRDDDLNLRALCDRDVTVTAIGIGDMFHEKHESENLYSIACDKPQQVRNMTLFSDLVAEKFIDDMEDVLCPDPQIVCPDLPCQTELSVAQCTQRPVDIVFLLDGSERLGEQNFHKARRFVEQVARRLTLARRDDDPLNARVALLQFGGPGEQQVAFPLSHNLTAIHEALETTQYLNSFSHVGAGVVHAINAIVRSPRGGARRHAELSFVFLTDGVTGNDSLHESAHSMRKQNVVPTVLALGSDVDMDVLTTLSLGDRAAVFHEKDYDSLAQPGFFDRFIRWIC

Experiments:
[1] = test system: CVI-induced proliferation of HSC; assay: Inhibition of CVI-induced proliferation by alpha single chains, [3H]-thymidine incorporation; assay type: cell-based, rat; conditions: 40 mg/l single chain, then 30 mg/l CVI; 24 h; primary rHSCs, n = three; Fig 4A legend: CFSC, n = 4
Experimental: (§1) 5x10^3CFSC in 100 μl 10% FBS were seeded into a 96-well flat-bottom tissue culture plate (Nunc, Roskilde, Denmark). After 24 hours, medium was completely removed, and cells were rinsed with 200 μl phosphate-buffered saline and 100 μl standard medium containing only 0.25% FBS were added. Cells were cultured for additional 24 h prior to treatment. Synchronized microcultures in 96-well plates were treated for 2 hours in reduction medium. When appropriate, the reduction medium was supplemented with 40 mg/l of α1(VI), α2(VI) or α3(VI). Then, 30 mg/l CVI or CI as control were added and cells were incubated for 24 h after which [^3H]-thymidine was added for additional 24 h. To assess effects of α3(VI)-derived 30-mer peptides on CVI-induced proliferation of CFSC, the reduction medium was supplemented with a 100-fold molar excess of the respective 30-mer peptides compared to CVI. [^3H]-thymidine incorporation was measured as described before. Cells treated with 150 mmol/l HAc or grown in 10% FBS served as negative and positive controls, respectively. During the last 4 hours of treatment, all cultures received 18.5 kBq [^3H]-thymidine (Amersham, Freiburg, Germany). Cells were fixed with 10% trichloroacetic acid and lysed by 200 mmol/l NaOH. After neutralization with 800 mmol/l HCl, lysates were collected to a glassfibre mat and the de-novo DNA synthesis was assessed by liquid scintillation (LKB Wallac, Bromma, Sweden) and the radioactive decay was counted (for) a minute (cpm).

[2] = Live/Dead Viability/Cytotoxicity Kit (Calcein AM staining); assay type: cell-based; conditions: 24 h with individual chains; S4 Fig; three independent experiments
Experimental: Supplementary file pone.0254557.s004.pdf: S4 Fig Single CVI chains are not toxic To exclude that the effects of the alpha chains on proliferation or gene expression are due to cytotoxic effects, cells were treated 24 h with individual chains and cell viability was determined using the two-colour fluorescence Live/Dead™ Viability/Cytotoxicity Kit (Invitrogen™). Methanol (10% in medium) was used a positive control to induce cell toxicity. Medium was used as a non-toxic negative control. Since acetic acid (HAc) is used as solvent of the chains, cells treated with 0.15 M HAc were included as an additional control group. Shown are Mean ± SD of three independent experiments. Statistics were calculated by one-way ANOVA analysis and Tukey’s multiple comparisons test. Differences p<0.05 were considered significant. (PDF) Click here for additional data file.

CFSC = assay: Fibrosis-associated gene expression, quantitative real-time PCR; assay type: cell-based, rat; conditions: serum-starved CFSC; 30 mg/l CVI plus 133 mg/l monomeric alpha chain; 24 h; n = 4
Experimental: 30 mg/l CVI, 133 mg/l of the monomeric alpha chains of CVI and/or TGF-β (2 ng/ml) were added after 24 h. […] Reverse transcribed complementary DNA templates were amplified by quantitative real-time polymerase chain reaction (PCR; Roche Diagnostics, Mannheim, Germany) using fluorogenic probes labeled with 6-carboxy-fluorescein and 6-carboxy-tetramethylrhodamin (Sigma- Genosys, Steinheim, Germany) and primer pairs (Invitrogen, Karlsruhe, Germany) specific for fibrosis-associated genes (for sequences see S2 Table). Gene expressions were normalized to glyceraldehyde phosphate dehydrogenase (GAPDH).

[3] = test system: 10% FBS-induced proliferation of HSC; assay: Inhibition of 10% FBS-induced proliferation by alpha single chains, [3H]-thymidine incorporation; assay type: cell-based, rat; conditions: cells grown in 10% FBS, Fig 4A
Experimental: as §1

rat HSCs = conditions: blocking integrins in rat HSCs; cited from earlier work
Excerpt: While the mechanisms underlying this anti-apoptotic property of CVI remain to be fully established, our studies point to a potent repression of BAX by soluble CVI. […] This growth factor withdrawal-induced p53 and Bax upregulation can be mitigated by ECM components through integrin-mediated adhesion and spreading as shown for rat HSCs.

Molecule	inhibition of DNA synthesis in the presence of CVI [1] [%]	cytotoxic effects (Calcein AM staining, cell viability) [2]	effect on CVI-induced expression of αSMA, CI and TGF-β (CFSC)	effect on 10% FBS-induced proliferation [3]	increase in the Bax/Bcl-2 ratio (rat HSCs) [fold]
α3(VI): monomeric alpha 3 single chain of collagen VI isolated from human placentas	70	not secondary to cytotoxic effects	largely blocked	did not block any FBS-induced proliferation	–
Gly-Arg-Gly-Asp-Ser [GRGDS]	–	–	–	–	3
B1	60	not secondary to cytotoxic effects	largely blocked	also inhibited 10% FBS-induced proliferation	–
